According to patent US20170182047A9, “Post-Translational Regulation of Catalytic Activities of Cytochrome P450 46A1 and Uses Thereof” (The Board of Regents of the University of Texas System, priority 2007, published 2017):

Experiments:
[1] = substrate: CC(C)CCC[C@@H](C)[C@H]1CC[C@H]2[C@@H]3CC=C4C[C@@H](O)CC[C@]4(C)[C@H]3CC[C@]12C; experiment: purified protein, by the assay type; details: other: compound as substrate, 37.0 °C
Procedure: (§1) The ability of recombinant CYP46A1 to metabolize CH-3S was tested using the reconstituted with cytochrome P450 reductase in vitro system. After termination of the enzyme reaction, the substrate and products were extracted, solvolyzed, converted into trimethylsilyl ethers and analyzed by gas chromatography-mass spectrometry as described (23). […] The reaction conditions were optimized for the formation of only one product.
(§2) The reconstituted system (1 ml) contained 0.1-0.25 μM P450, 0.5 μM NADPH cytochrome P450 oxidoreductase, varying concentrations of cold substrate (1-75 μM), 250,000 cpm of radiolabeled substrate, and 2U of catalase. […] The organic phase was isolated, evaporated, dissolved in acetonitrile, and subjected to HPLC. […] Substrate metabolism was <18% and linear with reaction time and enzyme concentration.

[2] = substrate: CC(C)CCC[C@@H](C)[C@H]1CC[C@H]2[C@@H]3CC=C4C[C@@H](OS(=O)(=O)O)CC[C@]4(C)[C@H]3CC[C@]12C; experiment: purified protein, by the assay type; details: other: compound as substrate, 37.0 °C
Procedure: as §1, §2

B1: Δ(2-50)CYP46A1dH (Homo sapiens) (protein)
chain: MKKDEVGGRVLQDVFLDWAKKYGPVVRVNVFHKTSVIVTSPESVKKFLMSTKYNKDSKMYRALQTVFGERLFGQGLVSECNYERWHKQRRVIDLAFSRSSLVSLMETFNEKAEQLVEILEAKADGQTPVSMQDMLTYTAMDILAKAAFGMETSMLLGAQKPLSQAVKLMLEGITASRNTLAKFLPGKRKQLREVRESIRFLRQVGRDWVQRRREALKRGEEVPADILTQILKAEEGAQDDEGLLDNFVTFFIAGHETSANHLAFTVMELSRQPEIVARLQAEVDEVIGSKRYLDFEDLGRLQYLSQVLKESLRLYPPAWGTFRLLEEETLIDGVRVPGNTPLLFSTYVMGRMDTYFEDPLTFNPDRFGPGAPKPRFTYFPFSLGHRSCIGQQFAQMEVKVVMAKLLQRLEFRLVPGQRFGLQEQATLKPLDPVLCTLRPRGWQPAPPPPPC
[1]; Δ(2-50) CYP46A1
  Km: 7.7 µM
  kcat: 0.43 min⁻¹
  kcat/Km: 1000 M⁻¹ s⁻¹
[2]; Δ(2-50) CYP46A1
  Km: 3.3 µM

B2: full-length CYP46A1 (Homo sapiens) (protein)
chain: MSPGLLLLGSAVLLAFGLCCTFVHRARSRYEHIPGPPRPSFLLGHLPCFWKKDEVGGRVLQDVFLDWAKKYGPVVRVNVFHKTSVIVTSPESVKKFLMSTKYNKDSKMYRALQTVFGERLFGQGLVSECNYERWHKQRRVIDLAFSRSSLVSLMETFNEKAEQLVEILEAKADGQTPVSMQDMLTYTAMDILAKAAFGMETSMLLGAQKPLSQAVKLMLEGITASRNTLAKFLPGKRKQLREVRESIRFLRQVGRDWVQRRREALKRGEEVPADILTQILKAEEGAQDDEGLLDNFVTFFIAGHETSANHLAFTVMELSRQPEIVARLQAEVDEVIGSKRYLDFEDLGRLQYLSQVLKESLRLYPPAWGTFRLLEEETLIDGVRVPGNTPLLFSTYVMGRMDTYFEDPLTFNPDRFGPGAPKPRFTYFPFSLGHRSCIGQQFAQMEVKVVMAKLLQRLEFRLVPGQRFGLQEQATLKPLDPVLCTLRPRGWQPAPPPPPC
[1]; Full-length CYP46A1
  Km: 5.4 µM
  kcat: 0.11^2 min^−1
  kcat/Km: 330 M⁻¹ s⁻¹
[2]; Full-length CYP46A1
  Km: 4.9 µM
